In article PMC5635807, “Identification of Trombospondin-1 as a Novel Amelogenin Interactor by Functional Proteomics” (Frontiers in Chemistry, 2017):

Molecular target: T1, Thrombospondin-1 (Abnova) (UniProt P07996 19-1170)
T1 construct: Thrombospondin-1 bought from Abnova; No catalogue number is printed; the product may be a partial or tagged recombinant protein; also called TSP-1; free TSP-1; source: bought: Abnova
Assay: SPR; Biacore 3000; AMEL-2 immobilised on a CM5 chip by amine coupling (10,000 RU); running buffer 10 mM Na2HPO4, 150 mM NaCl, pH 7.4; analytes injected at 10 μl/min for 3 min, dissociation 600 s, no regeneration; 1:1 Langmuir model
Conditions: both partners purified

T1 sequence (P07996 19-1170): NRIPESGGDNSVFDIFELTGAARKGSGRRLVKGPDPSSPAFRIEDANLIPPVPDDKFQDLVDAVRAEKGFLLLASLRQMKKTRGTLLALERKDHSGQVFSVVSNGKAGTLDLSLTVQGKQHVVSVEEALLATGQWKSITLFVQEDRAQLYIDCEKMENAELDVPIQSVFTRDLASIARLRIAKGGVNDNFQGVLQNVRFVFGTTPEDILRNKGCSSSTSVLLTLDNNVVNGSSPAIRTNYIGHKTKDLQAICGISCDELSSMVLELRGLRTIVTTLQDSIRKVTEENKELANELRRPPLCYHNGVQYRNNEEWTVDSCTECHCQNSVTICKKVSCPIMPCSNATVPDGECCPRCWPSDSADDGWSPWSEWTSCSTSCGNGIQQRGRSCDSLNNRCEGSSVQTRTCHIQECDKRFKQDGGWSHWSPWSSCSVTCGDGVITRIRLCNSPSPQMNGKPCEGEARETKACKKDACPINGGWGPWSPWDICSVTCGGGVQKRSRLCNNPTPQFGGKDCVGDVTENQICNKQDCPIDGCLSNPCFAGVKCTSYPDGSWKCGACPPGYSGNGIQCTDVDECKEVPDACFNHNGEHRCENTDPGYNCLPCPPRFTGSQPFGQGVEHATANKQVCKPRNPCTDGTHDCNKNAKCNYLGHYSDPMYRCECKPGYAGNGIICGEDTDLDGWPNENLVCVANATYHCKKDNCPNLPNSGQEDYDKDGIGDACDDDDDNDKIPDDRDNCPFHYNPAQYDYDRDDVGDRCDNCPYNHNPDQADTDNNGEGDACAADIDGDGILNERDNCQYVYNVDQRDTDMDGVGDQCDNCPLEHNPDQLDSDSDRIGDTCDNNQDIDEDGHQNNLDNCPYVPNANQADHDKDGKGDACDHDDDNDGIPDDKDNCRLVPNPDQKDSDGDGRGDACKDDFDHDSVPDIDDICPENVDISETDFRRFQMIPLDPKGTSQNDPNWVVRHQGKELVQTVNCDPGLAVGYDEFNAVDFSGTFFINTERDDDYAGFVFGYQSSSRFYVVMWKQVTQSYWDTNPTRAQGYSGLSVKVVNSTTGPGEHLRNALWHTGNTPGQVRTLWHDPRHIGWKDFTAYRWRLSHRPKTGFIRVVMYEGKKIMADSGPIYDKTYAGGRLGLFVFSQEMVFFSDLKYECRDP

Kd: 878 ± 125 nM
B1: human amelogenin isoform 2 (AMELX isoform II), recombinant (natural protein)
chain: MGTWILFACLLGAAFAMPVLTPLKWYQSIRPPYPSYGYEPMGGWLHHQIIPVLSQQHPPTHTLQPHHHIPVVPAQQPVIPQQPMMPVPGQHSMTPIQHHQPNLPPPAQQPYQPQPVQPQPHQPMQPQPPVHPMQPLPPQPPLPPMFPMQPLPPMLPDLTLEAWPSTDKTKREEVD
